Test results from the Immune Epitope Database (IEDB).

What was measured:
[1] = target: HLA-A*02:01; assay: IEDB peptide-MHC binding, purified MHC/competitive/fluorescence; filed as Kd, often an IC50 or EC50 that approximates it; ≥ and ≤ were set here for values at or beyond the usual limits of such assays; details: source organism: Escherichia coli O139:H28 str. E24377A
[2] = target: HLA-A*02:12; assay: as above; details: source organism: Escherichia coli O139:H28 str. E24377A
[3] = target: HLA-A*03:01; assay: as above; details: source organism: Escherichia coli O139:H28 str. E24377A
[4] = target: HLA-A*25:01; assay: as above; details: source organism: Escherichia coli O139:H28 str. E24377A
[5] = target: HLA-A*26:01; assay: as above; details: source organism: Escherichia coli O139:H28 str. E24377A
[6] = target: HLA-A*29:02; assay: as above; details: source organism: Escherichia coli O139:H28 str. E24377A
[7] = target: HLA-A*80:01; assay: as above; details: source organism: Escherichia coli O139:H28 str. E24377A
[8] = target: HLA-B*15:01; assay: as above; details: source organism: Escherichia coli O139:H28 str. E24377A
[9] = target: HLA-B*15:17; assay: as above; details: source organism: Escherichia coli O139:H28 str. E24377A
[10] = target: HLA-B*18:01; assay: as above; details: source organism: Escherichia coli O139:H28 str. E24377A
[11] = target: HLA-B*27:03; assay: as above; details: source organism: Escherichia coli O139:H28 str. E24377A
[12] = target: HLA-B*39:01; assay: as above; details: source organism: Escherichia coli O139:H28 str. E24377A
[13] = target: HLA-B*51:01; assay: as above; details: source organism: Escherichia coli O139:H28 str. E24377A
[14] = target: HLA-B*57:01; assay: as above; details: source organism: Escherichia coli O139:H28 str. E24377A
[15] = target: HLA-B*07:02; assay: IEDB peptide-MHC binding, purified MHC/direct/fluorescence; filed as Kd, often an IC50 or EC50 that approximates it; ≥ and ≤ were set here for values at or beyond the usual limits of such assays; details: source organism: Rickettsia conorii
[16] = target: HLA-B*15:01; assay: as above; details: source organism: Rickettsia sibirica 246
[17] = target: HLA-B*51:01; assay: as above; details: source organism: Rickettsia conorii
[18] = target: HLA-C*04:01; assay: as above; details: source organism: Rickettsia sibirica 246
[19] = target: HLA-C*05:01; assay: as above
[20] = target: HLA-B*48:01; assay: IEDB peptide-MHC binding, purified MHC/competitive/fluorescence; filed as Kd, often an IC50 or EC50 that approximates it; ≥ and ≤ were set here for values at or beyond the usual limits of such assays; details: source organism: Yersinia pestis Nepal516
[21] = target: HLA-C*12:03; assay: IEDB peptide-MHC binding, purified MHC/direct/fluorescence; filed as Kd, often an IC50 or EC50 that approximates it; ≥ and ≤ were set here for values at or beyond the usual limits of such assays; details: source organism: human gammaherpesvirus 4
[22] = target: HLA-A*32:15; assay: IEDB peptide-MHC binding, purified MHC/competitive/fluorescence; filed as Kd, often an IC50 or EC50 that approximates it; ≥ and ≤ were set here for values at or beyond the usual limits of such assays; details: source organism: human gammaherpesvirus 4
[23] = target: HLA-A*68:23; assay: as above; details: source organism: human gammaherpesvirus 4
[24] = target: HLA-B*15:42; assay: as above; details: source organism: human gammaherpesvirus 4
[25] = target: HLA-B*27:20; assay: as above; details: source organism: human gammaherpesvirus 4
[26] = target: HLA-B*40:13; assay: as above; details: source organism: human gammaherpesvirus 4
[27] = target: HLA-B*45:06; assay: as above; details: source organism: human gammaherpesvirus 4
[28] = target: HLA-B*83:01; assay: as above; details: source organism: human gammaherpesvirus 4
[29] = target: HLA-C*06:02; assay: as above; details: source organism: human gammaherpesvirus 4
[30] = target: HLA-C*14:02; assay: as above; details: source organism: human gammaherpesvirus 4

Q: What does the source list for SIPFGLMSA?
A: Kd [1]: ≥ 20000 nM; Kd [2]: 881 nM; Kd [3]: ≥ 20000 nM; Kd [4]: ≥ 20000 nM; Kd [5]: ≥ 20000 nM; Kd [6]: ≥ 20000 nM; Kd [7]: ≥ 20000 nM; Kd [8]: ≥ 20000 nM; Kd [9]: ≥ 20000 nM; Kd [10]: ≥ 20000 nM; Kd [11]: ≥ 20000 nM; Kd [12]: ≥ 20000 nM; Kd [13]: ≥ 20000 nM; Kd [14]: ≥ 20000 nM

Q: With FADSDNIAM as the sequence, how does the Kd [15] read?
A: ≥ 20000 nM

Q: What about the Kd [16] of the same sequence?
A: ≥ 20000 nM

Q: And the Kd [17]?
A: ≥ 20000 nM

Q: What about the Kd [18] of the same sequence?
A: ≥ 20000 nM

Q: What about the Kd ([19]; source organism: Rickettsia sibirica 246) of the same sequence?
A: ≤ 1 nM

Q: RMAMIPRTL was tested. Which Kd [20] did it give?
A: 87.3 nM

Q: Which Kd ([19]; source organism: human gammaherpesvirus 4) does the source give for YAMAIRQAI here?
A: 2230 nM

Q: What about the Kd [21] of the same sequence?
A: ≤ 1 nM

Q: And the Kd [22]?
A: 92 nM

Q: And the Kd [23]?
A: 190 nM

Q: What about the Kd [24] of the same sequence?
A: ≥ 5000 nM

Q: What about the Kd [25] of the same sequence?
A: 29.9 nM

Q: And the Kd [26]?
A: 23.9 nM

Q: What about the Kd [27] of the same sequence?
A: ≥ 5000 nM

Q: And the Kd [28]?
A: 1020 nM

Q: And the Kd [29]?
A: 100 nM

Q: What about the Kd [30] of the same sequence?
A: 42.6 nM
